According to patent US20210403547A1:

Target: membrane-bound ligands (TGF-alpha and Epiregulin) on HT-29 cells
Assay: cell-based or functional assay

Control IgG (antibody) showed a Mean Ringspot Total Intensity of Fluorescence (internalization into HT-29 cells), 40 ug/mL, 0 min post addition of 94, a Mean Ringspot Total Intensity of Fluorescence (internalization into HT-29 cells), 40 ug/mL, 5 min post addition of 116 and a Mean Ringspot Total Intensity of Fluorescence (internalization into HT-29 cells), 40 ug/mL, 15 min post addition of 126. The Mean Ringspot Total Intensity of Fluorescence (internalization into HT-29 cells), 40 ug/mL, 30 min post addition was 124, the Mean Ringspot Total Intensity of Fluorescence (internalization into HT-29 cells), 40 ug/mL, 60 min post addition was 167 and the Mean Ringspot Total Intensity of Fluorescence (internalization into HT-29 cells), 40 ug/mL, 120 min post addition was 177. The Mean Ringspot Total Intensity of Fluorescence (internalization into HT-29 cells), dose 0.34 ug/ml, 2 h at 37 C was 1410, the Mean Ringspot Total Intensity of Fluorescence (internalization into HT-29 cells), dose 0.69 ug/ml, 2 h at 37 C was 1480 and the Mean Ringspot Total Intensity of Fluorescence (internalization into HT-29 cells), dose 1.38 ug/ml, 2 h at 37 C was 1470. The Mean Ringspot Total Intensity of Fluorescence (internalization into HT-29 cells), dose 2.75 ug/ml, 2 h at 37 C was 1570, the Mean Ringspot Total Intensity of Fluorescence (internalization into HT-29 cells), dose 5.5 ug/ml, 2 h at 37 C was 1360 and the Mean Ringspot Total Intensity of Fluorescence (internalization into HT-29 cells), dose 11 ug/ml, 2 h at 37 C was 1390. The Mean Ringspot Total Intensity of Fluorescence (internalization into HT-29 cells), dose 22 ug/ml, 2 h at 37 C was 1760, the Mean Ringspot Total Intensity of Fluorescence (internalization into HT-29 cells), dose 44 ug/ml, 2 h at 37 C was 1810 and the Mean Ringspot Total Intensity of Fluorescence (internalization into HT-29 cells), dose 88 ug/ml, 2 h at 37 C was 2440.
